What was measured:
[1] = target: T1, SAP1 (UniProt P28324 1-93); experiment: BLI; BLI on streptavidin biosensors; buffer with NaCl (concentration not in material), 0.01 mM EDTA, 0.05% Tween 20; pH and temperature not in material; settings: protein: recombinant, label: biotin
T1 sequence: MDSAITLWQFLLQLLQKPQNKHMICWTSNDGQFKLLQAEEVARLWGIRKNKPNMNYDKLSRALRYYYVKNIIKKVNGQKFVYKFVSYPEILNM

[2] = target: PU.1 (UniProt P17947 165-270); experiment: as above

B1: 26 (dsDNA)
DNA 1: GACAGGATGTG
DNA 2: CACATCCTGTC
Kd ([1]; 11-bp duplex, hybridized on immobilized ssDNA): 1080 ± 6 nM
Kd [2]: 330 nM

B2: 27 (dsDNA)
DNA 1: GACAGCATGTG
DNA 2: CACATGCTGTC
binding result ([1]; duplex): no binding
Kd [2]: 1600 nM
